Source: patent publication US20190270815A1 (WUXI BIOLOGICS IRELAND, published 2019)

Columns and labels:
[1] = target: T1, human PD-1 expressed on cells (human, UniProt Q15116 25-288); experiment: FACS on CHO-S cells expressing human PD-1
T1 construct: whole, on cells; also called PD-1 expressing CHO cell; PD-1 transfected CHO-S cells
Description: 3.1 Binding affinity of PD-1 antibodies to cell surface PD-1 molecules tested by flow cytometry (FACS): Antibody binding affinity to cell surface PD-1 was performed by FACS analysis. CHO-S cells expressing human PD-1 were transferred in to 96-well U-bottom plates (BD) at a density of 5×10⁵ cells/ml. Tested antibodies were 1:2 serially diluted in wash buffer (1×PBS/1% BSA) and incubated with cells at 4° C. for 1 h. The secondary antibody goat anti-human IgG Fc FITC (3.0 moles FITC per mole IgG, (Jackson Immunoresearch Lab) was added and incubated at 4° C. in the dark for 1 h. The cells were then washed once and resuspended in 1×PBS/1% BSA, and analyzed by flow cytometery (BD). Fluorescence intensity will be converted to bound molecules/cell based on the quantitative beads Quantum™ MESF Kits, Bangs Laboratories, Inc.). KD was calculated using Graphpad Prism5.

[2] = target: T2, hPD-1 ECD-His point mutant P 39 (to alanine) (human, UniProt Q15116 25-170); experiment: ELISA, antibody coated, His-tagged PD-1 mutant supernatant; fold change vs silent alanine substitutions
T2 construct: extracellular domain
T2 sequence (Q15116 other isoform, or with tags, fused parts or gaps mutant): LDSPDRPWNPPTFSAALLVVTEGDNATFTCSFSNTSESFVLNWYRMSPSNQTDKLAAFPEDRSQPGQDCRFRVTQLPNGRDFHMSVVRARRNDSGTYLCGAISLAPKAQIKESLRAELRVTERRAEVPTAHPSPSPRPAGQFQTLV
Description: (§1) After interacting with the supernatant that contains quantified PD-1 mutant, HRP conjugated anti-His antibody (Rockland, Cat#200-303-382) was added as detection antibody. Absorbance was normalized according to the average of control mutants. After setting an additional cutoff to t4he binding fold change (<0.55), the final determined epitope residues were identified.

[3] = target: T3, hPD-1 ECD-His point mutant G 47 (to alanine) (human, UniProt Q15116 25-170); experiment: as above
T3 construct: extracellular domain
T3 sequence (Q15116 other isoform, or with tags, fused parts or gaps mutant): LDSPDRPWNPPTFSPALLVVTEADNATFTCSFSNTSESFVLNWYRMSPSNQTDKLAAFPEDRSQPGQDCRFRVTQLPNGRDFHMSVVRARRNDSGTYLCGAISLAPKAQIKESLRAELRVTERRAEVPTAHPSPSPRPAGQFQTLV
Description: as §1

[4] = target: T4, hPD-1 ECD-His point mutant N 49 (to alanine) (human, UniProt Q15116 25-170); experiment: as above
T4 construct: extracellular domain
T4 sequence (Q15116 other isoform, or with tags, fused parts or gaps mutant): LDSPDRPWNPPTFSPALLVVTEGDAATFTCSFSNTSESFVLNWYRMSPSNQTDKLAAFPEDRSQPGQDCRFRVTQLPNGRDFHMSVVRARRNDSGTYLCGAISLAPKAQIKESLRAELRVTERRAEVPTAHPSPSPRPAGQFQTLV
Description: as §1

[5] = target: T5, hPD-1 ECD-His point mutant F 52 (to alanine) (human, UniProt Q15116 25-170); experiment: as above
T5 construct: extracellular domain
T5 sequence (Q15116 other isoform, or with tags, fused parts or gaps mutant): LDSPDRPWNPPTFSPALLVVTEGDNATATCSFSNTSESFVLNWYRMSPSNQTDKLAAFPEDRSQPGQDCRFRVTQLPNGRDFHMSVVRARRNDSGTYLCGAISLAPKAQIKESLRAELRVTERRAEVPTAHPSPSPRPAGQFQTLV
Description: as §1

[6] = target: T6, hPD-1 ECD-His point mutant V 64 (to alanine) (human, UniProt Q15116 25-170); experiment: as above
T6 construct: extracellular domain
T6 sequence (Q15116 other isoform, or with tags, fused parts or gaps mutant): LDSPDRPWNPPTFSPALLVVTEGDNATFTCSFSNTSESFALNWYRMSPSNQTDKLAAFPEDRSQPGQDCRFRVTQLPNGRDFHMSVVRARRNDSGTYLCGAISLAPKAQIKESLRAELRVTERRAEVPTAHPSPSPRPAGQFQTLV
Description: as §1

[7] = target: T7, hPD-1 ECD-His point mutant W 67 (to alanine) (human, UniProt Q15116 25-170); experiment: as above
T7 construct: extracellular domain
T7 sequence (Q15116 other isoform, or with tags, fused parts or gaps mutant): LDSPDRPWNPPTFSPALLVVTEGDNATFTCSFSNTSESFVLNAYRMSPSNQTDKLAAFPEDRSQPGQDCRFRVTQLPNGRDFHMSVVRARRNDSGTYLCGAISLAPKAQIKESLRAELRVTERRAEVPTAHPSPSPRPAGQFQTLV
Description: as §1

[8] = target: T8, hPD-1 ECD-His point mutant F 82 (to alanine) (human, UniProt Q15116 25-170); experiment: as above
T8 construct: extracellular domain
T8 sequence (Q15116 other isoform, or with tags, fused parts or gaps mutant): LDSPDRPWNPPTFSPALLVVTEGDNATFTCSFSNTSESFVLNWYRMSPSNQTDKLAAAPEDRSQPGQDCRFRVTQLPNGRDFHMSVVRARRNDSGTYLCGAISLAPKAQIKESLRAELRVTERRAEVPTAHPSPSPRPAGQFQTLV
Description: as §1

[9] = target: T9, hPD-1 ECD-His point mutant P 83 (to alanine) (human, UniProt Q15116 25-170); experiment: as above
T9 construct: extracellular domain
T9 sequence (Q15116 other isoform, or with tags, fused parts or gaps mutant): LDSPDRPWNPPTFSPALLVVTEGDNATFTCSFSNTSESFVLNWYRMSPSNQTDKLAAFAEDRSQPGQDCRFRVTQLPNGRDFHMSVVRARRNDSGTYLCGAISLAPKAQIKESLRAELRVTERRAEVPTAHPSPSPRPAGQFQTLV
Description: as §1

[10] = target: T10, hPD-1 ECD-His point mutant F 95 (to alanine) (human, UniProt Q15116 25-170); experiment: as above
T10 construct: extracellular domain
T10 sequence (Q15116 other isoform, or with tags, fused parts or gaps mutant): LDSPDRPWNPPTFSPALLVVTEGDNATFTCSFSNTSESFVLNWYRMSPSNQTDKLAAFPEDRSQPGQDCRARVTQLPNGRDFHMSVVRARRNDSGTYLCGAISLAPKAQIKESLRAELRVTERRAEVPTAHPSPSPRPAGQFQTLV
Description: as §1

[11] = target: T11, hPD-1 ECD-His point mutant F 106 (to alanine) (human, UniProt Q15116 25-170); experiment: as above
T11 construct: extracellular domain
T11 sequence (Q15116 other isoform, or with tags, fused parts or gaps mutant): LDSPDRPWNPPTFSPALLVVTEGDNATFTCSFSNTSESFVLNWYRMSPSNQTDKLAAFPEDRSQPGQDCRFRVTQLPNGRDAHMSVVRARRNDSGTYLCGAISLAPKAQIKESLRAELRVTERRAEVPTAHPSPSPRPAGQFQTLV
Description: as §1

[12] = target: T12, hPD-1 ECD-His point mutant A 113 (to glycine) (human, UniProt Q15116 25-170); experiment: as above
T12 construct: extracellular domain
T12 sequence (Q15116 other isoform, or with tags, fused parts or gaps mutant): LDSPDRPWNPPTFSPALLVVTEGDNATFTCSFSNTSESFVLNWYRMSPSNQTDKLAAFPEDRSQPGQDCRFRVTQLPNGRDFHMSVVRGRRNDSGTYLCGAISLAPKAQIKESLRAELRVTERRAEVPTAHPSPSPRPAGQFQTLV
Description: as §1

[13] = target: T13, hPD-1 ECD-His point mutant D 117 (to alanine) (human, UniProt Q15116 25-170); experiment: as above
T13 construct: extracellular domain
T13 sequence (Q15116 other isoform, or with tags, fused parts or gaps mutant): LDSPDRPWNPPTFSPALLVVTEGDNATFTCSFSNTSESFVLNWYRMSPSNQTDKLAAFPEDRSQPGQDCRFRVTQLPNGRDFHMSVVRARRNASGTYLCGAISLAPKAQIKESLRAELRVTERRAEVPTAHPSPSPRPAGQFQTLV
Description: as §1

[14] = target: T14, hPD-1 ECD-His point mutant C 123 (to alanine) (human, UniProt Q15116 25-170); experiment: as above
T14 construct: extracellular domain
T14 sequence (Q15116 other isoform, or with tags, fused parts or gaps mutant): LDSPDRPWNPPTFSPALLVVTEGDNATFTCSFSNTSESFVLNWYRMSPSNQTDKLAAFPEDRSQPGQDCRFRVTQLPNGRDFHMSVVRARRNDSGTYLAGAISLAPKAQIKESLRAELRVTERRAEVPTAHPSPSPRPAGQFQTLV
Description: as §1

[15] = target: T15, hPD-1 ECD-His point mutant L 128 (to alanine) (human, UniProt Q15116 25-170); experiment: as above
T15 construct: extracellular domain
T15 sequence (Q15116 other isoform, or with tags, fused parts or gaps mutant): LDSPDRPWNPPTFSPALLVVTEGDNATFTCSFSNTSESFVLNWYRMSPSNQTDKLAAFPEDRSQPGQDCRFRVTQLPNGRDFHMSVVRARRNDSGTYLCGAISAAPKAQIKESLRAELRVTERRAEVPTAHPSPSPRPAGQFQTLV
Description: as §1

[16] = target: T16, hPD-1 ECD-His point mutant P 130 (to alanine) (human, UniProt Q15116 25-170); experiment: as above
T16 construct: extracellular domain
T16 sequence (Q15116 other isoform, or with tags, fused parts or gaps mutant): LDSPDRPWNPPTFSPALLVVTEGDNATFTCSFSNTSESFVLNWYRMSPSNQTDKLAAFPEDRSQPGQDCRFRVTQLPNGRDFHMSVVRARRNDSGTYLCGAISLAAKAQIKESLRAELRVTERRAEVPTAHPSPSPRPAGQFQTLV
Description: as §1

[17] = target: T17, hPD-1 ECD-His point mutant K 131 (to alanine) (human, UniProt Q15116 25-170); experiment: as above
T17 construct: extracellular domain
T17 sequence (Q15116 other isoform, or with tags, fused parts or gaps mutant): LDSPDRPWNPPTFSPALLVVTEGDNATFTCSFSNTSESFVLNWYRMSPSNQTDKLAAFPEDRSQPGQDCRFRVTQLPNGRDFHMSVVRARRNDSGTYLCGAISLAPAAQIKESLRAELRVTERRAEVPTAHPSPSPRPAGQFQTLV
Description: as §1

[18] = target: T18, hPD-1 ECD-His point mutant Q 133 (to alanine) (human, UniProt Q15116 25-170); experiment: as above
T18 construct: extracellular domain
T18 sequence (Q15116 other isoform, or with tags, fused parts or gaps mutant): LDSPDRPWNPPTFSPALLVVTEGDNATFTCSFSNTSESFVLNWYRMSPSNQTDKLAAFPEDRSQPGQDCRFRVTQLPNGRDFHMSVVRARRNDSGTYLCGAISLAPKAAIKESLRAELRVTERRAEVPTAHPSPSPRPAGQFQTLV
Description: as §1

[19] = target: T19, hPD-1 ECD-His point mutant I 134 (to alanine) (human, UniProt Q15116 25-170); experiment: as above
T19 construct: extracellular domain
T19 sequence (Q15116 other isoform, or with tags, fused parts or gaps mutant): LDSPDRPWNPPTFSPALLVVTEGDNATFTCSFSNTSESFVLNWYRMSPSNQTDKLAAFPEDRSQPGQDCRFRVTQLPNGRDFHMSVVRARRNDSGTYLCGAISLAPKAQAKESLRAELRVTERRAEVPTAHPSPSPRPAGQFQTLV
Description: as §1

[20] = target: T20, hPD-1 ECD-His point mutant L 142 (to alanine) (human, UniProt Q15116 25-170); experiment: as above
T20 construct: extracellular domain
T20 sequence (Q15116 other isoform, or with tags, fused parts or gaps mutant): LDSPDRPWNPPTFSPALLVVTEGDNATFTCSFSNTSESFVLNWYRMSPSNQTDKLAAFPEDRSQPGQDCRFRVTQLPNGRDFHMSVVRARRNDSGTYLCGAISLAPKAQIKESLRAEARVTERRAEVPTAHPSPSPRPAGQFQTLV
Description: as §1

[21] = target: T21, hPD-1 ECD-His point mutant V 144 (to alanine) (human, UniProt Q15116 25-170); experiment: as above
T21 construct: extracellular domain
T21 sequence (Q15116 other isoform, or with tags, fused parts or gaps mutant): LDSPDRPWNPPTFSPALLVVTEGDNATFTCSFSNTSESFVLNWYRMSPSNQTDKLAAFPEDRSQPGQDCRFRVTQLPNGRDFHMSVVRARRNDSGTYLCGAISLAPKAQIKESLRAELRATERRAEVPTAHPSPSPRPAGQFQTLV
Description: as §1

T1 sequence (Q15116 25-288): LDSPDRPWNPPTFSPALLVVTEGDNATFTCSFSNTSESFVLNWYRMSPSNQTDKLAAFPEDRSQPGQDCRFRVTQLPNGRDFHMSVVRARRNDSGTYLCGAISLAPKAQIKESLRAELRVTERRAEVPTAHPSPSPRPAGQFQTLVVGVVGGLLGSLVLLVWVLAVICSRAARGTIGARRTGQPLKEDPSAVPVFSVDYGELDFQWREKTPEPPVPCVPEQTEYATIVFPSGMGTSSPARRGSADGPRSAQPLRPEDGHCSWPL

B1: 1.103.11 hAb (antibody, V domains shown)
VH: QLQLQESGPGLVKPSETLTLTCTVSADSISSTTYYWVWIRQPPGKGLEWIGSISYSGSTYYNPSLKSRVTVSVDTSKNQFSLKLNSVAATDTALYYCARHLGYNGRYLPFDYWGQGTLVTVSS
VL: QSALTQPASVSGSPGQSITISCTGTSSDVGFYNYVSWYQQHPGKAPELMIYDVSNRPSGVSDRFSGSKSGNTASLTISGLQAEDEADYYCSSYTNISTWVFGGGTKLTVL
notes: fully human monoclonal antibody with a human constant region of IgG4 isotype
- EC50 [1]: ~2 nM
- fold change [2]: 0.55
- fold change [3]: 0.77
- fold change [4]: 0.73
- fold change [5]: 0.59
- fold change [6]: 0.32
- fold change [7]: 0.76
- fold change [8]: 0.65
- fold change [9]: 0.3
- fold change [10]: 0.63
- fold change [11]: 0.41
- fold change [12]: 0.73
- fold change [13]: 0.73
- fold change [14]: 0.46
- fold change [15]: 0.32
- fold change [16]: 0.41
- fold change [17]: 0.43
- fold change [18]: 0.37
- fold change [19]: 0.69
- fold change [20]: 0.44
- fold change [21]: 0.22
